Assay results reported in patent US20230265134A1.

Target: Ustekinumab lambda fusion light chain (human)
Test: LCMS of Fabs cleaved from IgG; 2 HC + 2 LC co-expressed in HEK293

“Panitumumab heavy chain, CH1 K147F S183K (from UniProt P01857 1-101)” was tested, and the % HC1-LC2 product was 0%.
